In the DeepSol protein solubility set:

Experiment: soluble on expression in E. coli; label from the status in PepcDB or PDB records

| Sequence | soluble on expression in E. coli |
| --- | --- |
| MTGLDKIISQILEDAGKEAQEISEKAKSEAEAVLAEAKAGCKKIAAENDEKLAGEATSYMERIKSSAELKKRQAVLLAKQQVITEMLEQAYEALLKKEGEEYFALIGKMLDKYVLPKTGEIYFSEKDLDRMPQGFEAVIEKAAVSKGGSLTLVKEPKNIDGGFILVYGGIEENCSFRALLAARRDELSDKVHAMLFS | not soluble |
| MTGMTNVTKLASEPSGQEFLVFTLGDEEYGIDILKVQEIRGYDQVTRIANTPAFIKGVTNLRGVIVPIVDLRIKFSQVDVDYNDNTVVIVLNLGQRVVGIVVDGVSDVLSLTAEQIRPAPEFAVTLSTEYLTGLGALGDRMLILVNIEKLLNSEEMALLDSAASEVA | soluble |
| MTGNLVTKNSLTPDVRNGIDFKIADLSLADFGRKELRIAEHEMPGLMSLRREYAEVQPLKGARISGSLHMTVQTAVLIETLTALGAEVRWASCNIFSTQDHAAAAVVVGPHGTPDEPKGVPVFAWKGETLEEYWWAAEQMLTWPDPDKPANMILDDGGDATMLVLRGMQYEKAGVVPPAEEDDPAEWKVFLNLLRTRFETDKDKWTKIAESVKGVTEETTTGVLRLYQFAAAGDLAFPAINVNDSVTKSKFDNKYGTRHSLIDGINRGTDALIGGKKVLICGYGDVGKGCAEAMKGQGARVSVTEIDPINALQAMMEGFDVVTVEEAIGDADIVVTATGNKDIIMLEHIKAMKDHAILGNIGHFDNEIDMAGLERSGATRVNVKPQVDLWTFGDTGRSIIVLSEGRLLNLGNATGHPSFVMSNSFANQTIAQIELWTKNDEYDNEVYRLPKHLDEKVARIHVEALGGHLTKLTKEQAEYLGVDVEGPYKPDHYRY | soluble |
| MTGRTGGNGSTQAQPERVMLVGVMLDKDGTGSSAARLNGFQTALAEAVELVKAAGGDSVRVETAKRDRPHTALFVGTGKAAELSEAVAADGIDLVVFNHELTPTQERNLEKELKCRVLDRVGLILAIFARRARTQEGRLQVELAQLSHLAGRLIRGYGHLQSQRGGIGMKGPGETKLETDRRLIAHRINALKKQLANLKKQRALRRKSRESGTIKTFALVGYTNVGKSSLFNRLTKSGIYAKDQLFATLDTTARRLYISPECSIILTDTVGFVSDLPHKLISAFSATLEETAQADVLLHVVDAAAPNSGQQIEDVENVLQEIHAGDIPCIKVYNKTDLLPSEEQNTGIWRDAAGKIAAVRISVAENTGIDALREAIAESCAAAPNTDETEMPLEHHHHHH | soluble |
| MTGSACFFSTDFLFGRYGPTVCIIPSENIPDKANTMIRPDFQEYLPSYYFSSVNPHTVYPKLQCRLKAETCIIGGGLSGLCTALPLAEHGHEAVVLEAARIGFGASGRSGGQVISDYACGMGEIEKQVGLEQAQWFWQQSLQAVELVDERVRKHAIDCDWQRGYATVAVRPQHWEELQQWHEHAQRHYGASHYQLWDKAELKQQLDSDMYQGAQFDPLSGHLHPLNYTLGVASAAAEAGAQIFEQSPMTRIEPYQNGWLVYTPEGSVECKNVVYAVNTYVGLNPIFRPLERKAIAVSTFIIATEPLGARTKGLIRNNMAVCDNRHILDYYRLSADGRLLFGGKDNEFIDNPARMTELVRQDMLKVFPQLADVRIEYSWGGECDITANLVPHFGRLTSNVFYTQGYSGHGMAITGIAGLAVAEAILGDECRLKPFEQLCQPNIILQPFLRKLGSFLGSKYYQWKDSRLEHHHHHH | not soluble |
| MTHETDKIVEIERQKIEVENERFAIEDECCSIKKRIDVLDGVAAQISSGPASMGFSGQCSSSIPASGSQPHLTRRHTVTGQEPNPLAMSQNQMSTGFFFNHESLDNLAKFLGYYGE | not soluble |
| MTHFKGGTMSQFEKYHPILTPHYTFDWLTKVRVIDVFNLYQTSNATATMETTAAQINHTMREIFHDHQLVWGVTARDTNAFVGQVGFAPIDTAKHEATLSVDLTATYQQVTTLREILERLVAFGTVELKLNRLTLILPKHDDLMAQILAGLNFSTTDHLTFNYHQ | not soluble |
| MTHPRDSIALTSDSLVLRFLSESGIPISDNNKVRLLKSGREKFIDLFSAIRDAKHHIHLEYFNFRNDSIANALFDLLAEKVKEGVEVRAMFDAFGNWSNNKPLKKRHLKKIREQGIEIVKFDPFTFPYINHAAHRDHRKIAVIDGEVAYTGGMNIADYYINGLPKIGTWRDMHMRIEGDAVNDLQEIFLTIWNKETKQNIGGEAYFPKHKEQSDSTNVVVAIVDRTPKKNSRMLSHA | not soluble |
| MTIKEDLGRRIKAERNRKQLTQSLLCGDETKLTIRQLQRIEGGQSLPTLEKLEFIADRLGTKIADLLEGSDIQLPDDYWELKGQIVKFPTYADKERLQQKQELIEEIYDKYFDILPEDELLFLDLSENILDSFHEKDIPNIEEIYDDAFEQVLKKETFAFNDYLYMSYFLQKCGKTADYDQTTFKLLEQKLLKQELTVDELYNIELLIAVMEASGVYALHNDYQNLLPLMKKAQRIIDKAQLHTYKPPLLELEAKYYVKVVKDKKKAKELYQQALVMGEVLGDPVIIADVKMEMANDGID | not soluble |
| MTILSVSPNKREDLSMKRKIALAMVLAMTASMAQPVLAADSKTTLDVIISQYGTQTQTWWTQFEKDFEAENPDIDLNVEIVSWNDLYTKVNTLVANNNAPDILNIDVLADYVADDLLMPATEYASEDLQAKFFPAFWEASTIDDTVYALPILASCRALFYNKDILDEAGATVPTTWAEVQETAQKIKDKFGDDVYPWGIDMTTDEGQAAFSYYTWNNGGGFVDENGDWALNSDKNVEALNFAIGLVNDGYTNSDPANETRYDLQDMFGAGKVAMMIGPNNIPTYLSDGGYDINYDVTTIPANEGCDSVAMGVCDRLEVFKDDSAEDQEARTAAISKFFDFFYDDERYADYMVFEGFLPTTQTAADLLAKDDDTFASWIDILQSCNFYPATKTEWADVKQGVIEVEQNALLGDDVQTLLDDLQADIAG | not soluble |
| MTITQKGDHHSILAKLRHRNIILAKLEKAYKIPSSNIKNIWTQLNEKIEHTIADFIRLLAKQMFINRYLKSCIRISKAEKKRDTVSLVHHLFYNNAA | not soluble |
| MTIYLVRHGESKSNYDNKHFRSYFCGQLDVPLTDTGTKSADDLCDYFKEKQIKHVYVSDLLRTQQTFEHIFPYDIASTTTPLLRERSLGVFEGEYKDEISANPKYEKYFNDPNFKDFRHSFSQKAPEGESYEDVYQRVEHFMNHVVNEDTQKDDIVIVAHQVVIRCLMVYFNKVSRAEAVDLKVENCKPYIIE | not soluble |
| MTKAELRRRARAAWRRLDLKALSRAVGAALLPWLRERGFRHILLYHPLPHELNLLPLMEAYPARYYLPKVAGKGLTVHPFGPLAPGPFGLLEPTTPPEDPRVLDLVVVPGLAFDREGYRLGHGQGFYDRFLKEVRAATVGVVPQALLFPALPRDPWDVPVDHLATEAGVEAVKRPAPGPGGLLD | soluble |
| MTKIFAKEWNMSDPGRALASFFATLPTRPQLLALGEPNHTDDAFPAQRNRLFRTLVEEYGFRSIALESDILAGQRVNAYVTGGADDLEEVMRTGFSHDFGRRAANRELVGWLRDFNAGRSADEQVHFYGFDPPMENLWAASPRASLLTLHALLARQVPALPVSAATIERLCGDDARWANPAAGMDAAQSIGHSDEARQLRVLTDDLLHRLETGAPGLAEQPDFWEAQLAARTAAGLLRYHAVMADPAPDRIARMLAARDLLMAGHLLAIAEREQRCGPTLVFAHNLHLQRPLSRMKMGAQKIGAQTLDWWGAGAHVSRRLGERYAFIASYPGAAEETFLVPSSELTEAAATQLSVRDDGQPYSFPFKLSDLPFLNGALLVGQFLEHHHHHH | soluble |
| MTKIIKNGTIVTATDTYEAHLLIKDGKIAMIGQNLEEKGAEVIDAKGCYVFPGGIDPHTHLDMPLGGTVTKDDFESGTIAAAFGGTTTIIDFCLTNKGEPLKKAIETWHNKANGKAVIDYGFHLMISEITDDVLEELPKVLEEEGITSLKVFMAYKNVFQADDGTLYCTLLAAKELGALVMVHAENGDVIDYLTKKALADGNTDPIYHALTRPPELEGEATGRACQLTELAGSQLYVVHVTCAQAVEKIAEARNKGLDVWGETCPQYLVLDQSYLEKPNFEGAKYVWSPPLREKWHQEVLWNALKNGQLQTLGSDQCSFDFKGQKELGRGDFTKIPNGGPIIEDRVSILFSEGVKKGRITLNQFVDIVSTRIAKLFGLFPKKGTIVVGSDADLVIFDPNIERVISAETHHMAVDYNAFEGMKVTGEPVSVLCRGEFVVRDKQFVGKPGYGQYLKRAKYGT | soluble |
| MTKIRQKSRKPGRTSRAKPVVAVVWYEDEQEWRAMRDLADDPERFEDSYEAWLTMFDRSLERLREGGAFPVRTPCNATKYREWCESKARSFDACSRSEYAAREFQARATQDE | not soluble |
| MTKKDEVKELEVKNNIPEAEKKPFNKFGKQEKHTVEDVEYTFQFPGTRAAQAILDNSKGPSNTFSDVAYHSQLMDSVIVTPKLNWDYWDEHEGYREVMALADNFLGRMLN | not soluble |
| MTKKYDLHCHSTASDGVLSPTELVHRAYAQGVNVLALCDHDTIAGIDEAEIAAKEVGIELITGVEISTNWEGRGIHIVGLNFDKTHPKMTALLQSQKALREKRAVEIGDKLEKAGIPNAYDGAKALADGEVTRAHYARYLVQIGKVSNDGQAFKRYLGQGKSAFVKAEWADIPTAIETIHAAGGIAIIAHPLRYNMTGKWVRKLIVDFKAWGGDGMEMADCGQTKDQRQMLARWAKEFDLQGSVGSDFHFPCGWIELGKNLDLVDSVIPVWEKF | not soluble |
| MTKLTIFYDGTCPLCAKEMKALRQHDHKQEINTVDIYSDAFSAYPQINPDRANTILHALDNQGNLLLGLDVTYRAWQLVGRGWLYAPLRWPLIRPVADWLYLRFAQNRYRISYWLTGTSRCNSGRCSR | not soluble |
| MTKNTRFSPEVRQRAVRMVLESQGEYDSQWATICSIAPKIGCTPETLRVWGLRQHERDTGGGDGGLTTAERQRLKEPERENRELRRSNDILRQASAYFAKAEFDRLWKKLEHHHHHH | not soluble |
| MTKPMIQIALDQTNLTDAVAVASNVASYVDVIEVGTILAFAEGMKAVSTLRHNHPNHILVCDMKTTDGGAILSRMAFEAGADWITVSAAAHIATIAACKKVADELNGEIQIEIYGNWTMQDAKAWVDLGITQAIYHRSRDAELAGIGWTTDDLDKMRQLSALGIELSITGGIVPEDIYLFEGIKTKTFIAGRALAGAEGQQTAAALREQIDRFWP | not soluble |
| MTKPVSISKKPRKQHTPEFRNEALKLAERIGVAAAARELSLYESQLYAWRSKQQQQMSSSERESELAAENVRLKRQLAEQAEELSILQKAATYFAKRLK | not soluble |
| MTKSLFRQSFLFDSLDLDHPMVAQTVRTEQGVTLKLHQRGVLEVIPAQTDAATKNMVISCGIHGDETAPMELLDKWIDDIVSGFQPVAERCLFIMAHPQATVRHVRFIEQNLNRLFDDKPHTPSTELAIADNLKVLLRQFFANTDEHSRWHLDLHCAIRGSKHYSFAVSPKARHPVRSRSLMQFIEQAHIEAVMLSNAPSSTFSWYSAEHYAAQALTLELGQVARLGENLLDRLLAFDLAMRDLISRHKPEHLPRKSVMYRVSRTIVRLHDDFDFRFSDDVENFTAFMHGEVFGHDGDKPLMAKNEGEAIVFPNRKVAIGQRAALMVCKVNTRYEDDQLVYDLEHHHHHH | soluble |
| MTKVALFSGGDLTYFTRDFDYFVGIDKGSSFLLKNQLPLDLAIGDFDSVSAEEFKQIKAKAKKLVMAPAEKNDTDTELALKTIFDCFGRVEIIVFGAFGGRIDHMLSNIFLPSDPDLAPFMRCFKLRDEQNLVEFFPAGQHQIEQATDMVYISFMAANGAHLSIQDAKYELTEENYFQKKIYSSNEFKDKPICFSVASGYVVVIQTKDRTLEHHHHHH | soluble |
